The numbers were not newly measured in PMC3877032, which cites them from elsewhere.

For one series, the target named is ERK2 (Homo sapiens) (UniProt P28482).
A further series deals with PLD1 (Homo sapiens) (UniProt Q13393).
UniProt Q13393, sequence (Q13393 whole entry): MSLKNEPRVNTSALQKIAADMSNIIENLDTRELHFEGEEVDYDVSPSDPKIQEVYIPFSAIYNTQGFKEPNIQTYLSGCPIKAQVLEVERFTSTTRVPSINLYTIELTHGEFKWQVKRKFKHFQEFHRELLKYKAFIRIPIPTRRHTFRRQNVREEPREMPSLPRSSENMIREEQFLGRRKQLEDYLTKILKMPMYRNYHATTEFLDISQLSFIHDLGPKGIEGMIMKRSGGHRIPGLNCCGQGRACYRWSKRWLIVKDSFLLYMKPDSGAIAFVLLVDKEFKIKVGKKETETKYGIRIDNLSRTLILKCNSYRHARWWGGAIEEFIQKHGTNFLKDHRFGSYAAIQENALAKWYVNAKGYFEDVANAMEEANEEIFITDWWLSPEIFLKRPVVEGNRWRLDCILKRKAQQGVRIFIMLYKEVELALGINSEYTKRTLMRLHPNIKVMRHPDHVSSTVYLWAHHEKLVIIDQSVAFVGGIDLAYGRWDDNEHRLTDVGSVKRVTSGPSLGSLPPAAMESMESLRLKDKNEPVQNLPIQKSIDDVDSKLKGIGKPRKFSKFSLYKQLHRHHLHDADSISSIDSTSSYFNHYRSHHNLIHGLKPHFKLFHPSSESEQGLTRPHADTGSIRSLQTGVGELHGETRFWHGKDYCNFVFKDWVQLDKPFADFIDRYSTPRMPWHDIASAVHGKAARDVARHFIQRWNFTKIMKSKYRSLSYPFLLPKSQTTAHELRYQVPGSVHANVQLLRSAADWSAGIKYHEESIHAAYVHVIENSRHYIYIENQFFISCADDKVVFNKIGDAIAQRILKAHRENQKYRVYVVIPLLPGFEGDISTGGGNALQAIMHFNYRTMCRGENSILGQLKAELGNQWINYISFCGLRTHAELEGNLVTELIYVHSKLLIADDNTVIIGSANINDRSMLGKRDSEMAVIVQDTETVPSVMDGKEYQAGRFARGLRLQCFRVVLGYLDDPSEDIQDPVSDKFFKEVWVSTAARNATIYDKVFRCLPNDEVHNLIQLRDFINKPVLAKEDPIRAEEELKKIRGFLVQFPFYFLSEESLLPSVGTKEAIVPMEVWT

UniProt P28482, sequence (P28482 2-360): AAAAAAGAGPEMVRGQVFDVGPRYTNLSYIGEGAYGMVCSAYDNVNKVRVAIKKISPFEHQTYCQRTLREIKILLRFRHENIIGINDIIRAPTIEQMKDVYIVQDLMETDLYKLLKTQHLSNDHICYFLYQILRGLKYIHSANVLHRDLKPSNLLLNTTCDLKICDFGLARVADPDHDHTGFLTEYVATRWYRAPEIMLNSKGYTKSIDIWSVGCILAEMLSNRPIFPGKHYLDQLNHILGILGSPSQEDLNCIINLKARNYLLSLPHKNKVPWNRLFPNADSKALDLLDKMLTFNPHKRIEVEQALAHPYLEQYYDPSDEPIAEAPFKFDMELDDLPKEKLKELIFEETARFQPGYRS

On to PEA-15 (from UniProt Q15121), for which the results for the Kd with ERK2 (Homo sapiens) and with PLD1 (Homo sapiens) were 133 nM and 370 nM, respectively.
